Experiment [1] concerns the target HLA-A201/LMP-1 monomer (recombinant, membrane free, refolded complex of HLA-A201 heavy chain, beta-2 microglobulin and LMP-1 peptide …) (human; Epstein-Barr virus). As to the kind of experiment: Kaff from OD50 at two antigen concentrations (Beatty et al.), [Ag] 60 ng/ml.
Experiment [2] shares this target. Description: Kaff from OD50 at two antigen concentrations (Beatty et al.), [Ag] 15 ng/ml.
Experiment [3] shares this target. As to the kind of experiment: average Kaff (Beatty et al. method).
Experiment [4] has the same target. As to the kind of experiment: dose response curve, antigen at 120 ng/ml (method of Beatty et al.).
The target is the same in experiment [5]. As to the kind of experiment: dose response curve, antigen at 15 ng/ml (method of Beatty et al.).
The target is the same in experiment [6]. As to the kind of experiment: Kaff from OD50 at two antigen concentrations (Beatty et al.), [Ag] 120 ng/ml.
The target is the same in experiment [7]. Description: Kaff from OD50 at two antigen concentrations (Beatty et al.), [Ag] 30 ng/ml.
For experiment [8] the target is unchanged. As to the kind of experiment: dose response curve, antigen at 30 ng/ml (method of Beatty et al.).
Experiment [9] has the same target. As to the kind of experiment: dose response curve, antigen at 60 ng/ml (method of Beatty et al.).

Take “BB7.2 (pan anti-HLA-A2), commercially available anti-HLA-A2 antibody”: the Ka in experiment [1] came to 1.01e+09 M⁻¹; in experiment [2], 4.31e+08 M⁻¹; in [3] it was 7.17e+08 M⁻¹; in experiment [6] it was 5.7e+08 M⁻¹; in experiment [7], 8.71e+08 M⁻¹. For the same substance, the [mAb] at OD50 was 26.1 ng/mL in experiment [4], 121 ng/mL in experiment [5], 68.1 ng/mL in experiment [8] and 54.1 ng/mL in [9].

(Values after patent US20120294874A1.)
